Measured values from paper PMC3629964.

Target: NH2-terminal-PEGylated HZ-TRAIL monomer (human) (UniProt P50591)
Test: SEC + other: quantitative Western blot

## 6xHis-ILZ-hTRAIL(114-281) (from UniProt P50591 114-281) (ligand)
  stoichiometry N: 2
